The results in this text go back to patent US20240092836A1 (GENEFRONTIER, published 2024).

Bridges are numbered along the chain shown (N, C = ends). Where no end group is shown, it is not given here.

The target of experiment [1] is T1, CTLA4 of the CTLA4:B7-1[Biotinylated] Inhibitor Screening Assay Kit (BPS Bioscience) (human, UniProt P16410 37-162, limits assumed).
T1 construct: Kit protein
T1 sequence: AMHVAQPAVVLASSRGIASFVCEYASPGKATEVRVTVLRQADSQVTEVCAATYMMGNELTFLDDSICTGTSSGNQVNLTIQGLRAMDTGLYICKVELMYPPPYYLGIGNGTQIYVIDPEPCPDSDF
Briefly: CTLA4:B7-1[Biotinylated] Inhibitor Screening Assay Kit, synthetic peptide against biotinylated B7-1. The source says: Inhibitor Screening Assay Kit (BPS Biosciences) as described above.

Experiment [2] deals with T2, CTLA-4 expressed on the cell surface of CHO cells (Homo sapiens (Human), UniProt P16410 36-223).
T2 construct: also called CTLA-4 with its natural structure
T2 sequence: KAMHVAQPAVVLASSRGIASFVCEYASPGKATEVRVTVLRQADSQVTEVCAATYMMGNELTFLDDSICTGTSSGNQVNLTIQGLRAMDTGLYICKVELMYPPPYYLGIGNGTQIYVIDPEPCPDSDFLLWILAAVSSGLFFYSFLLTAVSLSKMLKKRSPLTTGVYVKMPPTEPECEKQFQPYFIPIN
Briefly: FACS on CHO cells expressing CTLA-4, synthetic peptide.

B1: Gly-clone #19: GCMHPFLPIVSHHFCER (peptide)
peptide: GCMHPFLPIVSHHFCER
modifications: disulfide 2-15 (inferred)
notes: chemically synthesised, glycine added to the N-terminus; also called synthesized peptide (Clone No. #19)
The molecule B1 yielded an IC50 in experiment [1] of 11.5 µM.

B2: No. #19 synthetic peptide used in FACS (peptide)
peptide: CMHPFLPIVSHHFCER
modifications: disulfide 1-14 (inferred); also: form used in FACS not given here: biotinylated or N-terminal Gly
Consider B2, for which the EC50 in experiment [2] came out at 0.47 µM.

One may read the IC50 as the midpoint of a concentration-inhibition curve. Usually EC50 stands for the concentration giving half of the maximal effect. The low end stands for a more potent agent, the high end for a less potent agent.
